From US20200171068A1, “COMPOSITIONS COMPRISING APTAMERS AND NUCLEIC ACID PAYLOADS AND METHODS OF USING THE SAME” (Children's National Medical Center, priority 2017, published 2020)
“Also recorded” adds a separate entry of the source.

Columns and labels:
[1] = test system: TUBO cells; test: Growth and apoptosis of TUBO cells in vitro; assay type: cell-based, mouse; settings: for percentage of apoptotic TUBO cells (Annexin V+): single agent
Description: FIG. 4A-FIG. 4J show how miR-26a chimera inhibits mouse breast cancer growth and protects from chemo-induced myelosuppression. FIG. 4A is a graph showing the binding of c-Kit-aptamer to TUBO cells. […] Cell count (left) and Annexin V^+ cells (%) (right) of the cells cultured with miR-26a chimera or the control (ctrl) were determined by flow cytometry. Asterisks denote the significant difference between ctrl chimera versus miR-26a chimera, and between ctrl chimera+5-FU versus miR-26a chimera+5FU. Data (mean±s.d.) were pooled from two experiments. FIG. 4C is a graph showing miR-26a expression in c-Kit^+ or c-Kit cells harvested from TUBO-derived tumors in BALB/c mice treated with miR-26a chimera (670 pmol/20 g) for 3 days. Data (mean+s.d.) were pooled from two experiments, involving a total of 6 mice per group. FIG. 4D is a graph showing Ezh2 expression in c-Kit^+ or c-Kit− cells harvested from TUBO-derived tumors in BALB/c mice treated with miR-26a chimera (670 pmol/20 g) for 3 days. Data (mean+s.d.) were pooled from two experiments, involving a total of 6 mice per group. FIG. 4E is a graph showing Bak1 expression in c-Kit^+ or c-Kit-cells harvested from TUBO-derived tumors in BALB/c mice treated with miR-26a chimera (670 pmol/20 g) for 3 days. Data (mean+s.d.) were pooled from two experiments, involving a total of 6 mice per group. FIG. 4F is a graph showing miR-26a expression in bone marrow (BM) detected by qPCR at 3 days after intravenous injection with the miR-26a chimera (670 pmol/20 g). Data (mean+s.d.) were pooled from two experiments, involving a total of 6 mice per group. FIG. 4G is a graph showing Bak expression in bone marrow (BM) detected by qPCR at 3 days after intravenous injection with the miR-26a chimera (670 pmol/20 g). Data (mean+s.d.) were pooled from two experiments, involving a total of 6 mice per group. FIG. 4H is a graph showing tumor volume over time. BALB/c mice bearing TUBO cells were treated with miR-26a chimera (670 pmol/20 g) (5 times, gray arrows) and 50 mg/kg 5-FU (3 times, dark grey arrows). Data (mean+s.d.) were pooled from two experiments, involving a total of 6 mice per group. There was significant difference between 5-FU only group versus miR-26a chimera only group (two way repeated-measures ANOVA followed by Bonferroni post-test for day0 to day18 (interaction p-value<0.001). FIG. 4I is a graph showing tumor volume over time after combinational treatment with 5-FU and chimeras. Data (mean+s.d.) were pooled from two experiments, involving a total of 6 mice per group. There was significant difference between 5-FU+ctrl chimera group versus 5-FU+miR-26a chimera group (two way repeated-measures ANOVA followed by Bonferroni post-test for day0 to day21, interaction p-value<0.0001). FIG. 4J is a graph showing the numbers of WBC and PLT in the tumor bearing mice 5 days after 5-FU treatment. Data (mean+s.d.) pooled from two experiments, involving a total of 6 mice per group. *P<0.05, **P<0.01.
A mouse TUBO breast cancer model was used to evaluate the therapeutic potential of miR-26a chimera for the myeloprotection and anti-tumor growth in breast cancer chemotherapy. Binding ability of an aptamer targeting mouse c-Kit to the TUBO cells was first tested by flow cytometry. […] To determine whether the mouse c-Kit-miR-26a chimera can inhibit the growth of mouse breast cancer cells in vitro, the TUBO cells were treated with increasing doses of miR-26a- or control-chimeras, and the viable cells counted under microscope at 2 days after the treatment.

[2] = test system: TUBO-derived tumors; test: Syngeneic TUBO breast tumor model in BALB/c mice; assay type: in vivo, mouse; settings: for tumor size / growth, monotherapy: chimera 670 pmol/20 g 5 daily injections, 5-FU 50 mg/kg 3 times
Description: BALB/c mice bearing TUBO tumors were treated intravenously with miR-26a chimera (670 pmol/20 g) daily for 5 days. At days 2, 3, and 4, 50 mg/kg 5-FU was intravenously injected. Peripheral blood was collected 5 and 10 days after the initial 5-FU treatment. FIG. 9A is a series of graphs showing the numbers of WBC, RBC, and PLT 5 days after 5-FU treatment. FIG. 9B is a series of graphs showing the numbers of WBC, RBC, and PLT 10 days after 5-FU treatment. Data (mean+s.d.) were pooled from two experiments, involving a total of 6 mice per group. *, P<0.05, **, P<0.01. Xenograft model were generated 8-weeks old female immune-deficient NOD-scid IL2Rgamma^null (NSG™, Jackson Laboratories, Bar Harbar, Me., USA) using human breast cancer cell line. Syngeneic TUBO tumors were established in 8-weeks old female BALB/c mice (from Charles River Animal Facility, Frederick, Md., USA). These tumor-bearing mice were randomly assigned to each treatment group. Eight-week old male C57BL/6 mice and C57BL/6 ly5.2 mice (from Charles River Animal Facility, Frederick, Md., USA) were used for bone marrow transplantation assay. The mouse groups assigned for each treatment were not blinded. No statistical methods were used to pre-determined sample size for the analysis of mouse experiments. All the mice were maintained in the Research Animal Facility at Children's National Institute, Children's National Medical Center. The committee on the Use and Care of Animal at Children's National Institute approved all procedures involving experimental animals. For xenograft models, the NSG mice and BALB/c mice were subcutaneously injected with 2×10^6 viable MDA-MB-231 cells and TUBO cells in their right hind limbs, respectively. After the tumor grew to 1 cm in diameter, mice were randomly divided into the groups for each treatment. For no treatment control, 100 μl saline with 1% mouse serum was intravenously injected through tail vein. […] Tumor sizes were measured in two dimensions every 3 days. Tumor volume (V) was calculated using the following formula: V=(½) S^2×L (S. the shortest dimension; L, the longest dimension). […] For chimera treatment in normal mice, C57BL/6 mice were treated with miR-26a chimera (670 pmol/20 g) everyday for 3 days by intravenous injection. […] Peripheral bloods were collected at day 5 and day 10 after the 5-FU treatment. Complete blood counts were measured by Hemavet 950FS (Drew Scientific, Miami Lakes, Fla., USA).

O=c1[nH]cc(F)c(=O)[nH]1 [5-FU, 5-fluorouracil, reference compound]
reduction in tumor cell number ([1]; TUBO cells, 7 μM of 5-FU alone): less than 20% | percentage of apoptotic TUBO cells (Annexin V+) [1]: increased | leukocytes and thrombocytes after 5-FU ([2]; TUBO-tumor bearing mice, 5-FU 50 mg/kg x3): significant leukopenia and thrombocytopenia | tumor size / growth, monotherapy [2]: growth retardation

B1: miR-26a chimera: mouse c-Kit DNA aptamer-C3-passenger RNA, passenger RNA-TEG-cholesterol and miR-26a-5p guide strand annealed (SEQ ID NO:6/7, 8, 9) (nucleic acid)
chain 1: GCTCAACGCGGGACGGCTCTCCCATTGAC
chain 2: CCUAUUCUGG
chain 3: GUUACUUGCACG
guide: UUCAAGUAAUCCAGGAUAGGCU
modifications: chemistry not fully specified
tumor cell number / effects, chimera in combination with 5-FU ([1]; TUBO cells, 5-FU 1 μg/ml (7 μM) plus chimera): enhanced these effects; also recorded: synergistically reduced tumor cells | IC50 ([1]; TUBO cells, viable cells counted 2 days after treatment, chimera alone, read-out: IC50, reduction in tumor cell number): ~83 nM | TUBO cell growth (cell count) ([1]; chimera alone, increasing doses): suppressed the growth; also recorded: dose-dependent reduction | percentage of apoptotic TUBO cells, chimera in combination with 5-FU ([1]; combination): increased | percentage of apoptotic TUBO cells (Annexin V+) [1]: induced apoptosis; also recorded: increased | tumor growth, 5-FU combined with chimera ([2]; 5-FU plus miR-26a chimera): most effective growth retardation | number of leukocytes (WBC) and thrombocytes (PLT), combination with 5-FU ([2]; TUBO-tumor bearing mice, 5 days after 5-FU): nearly doubled | tumor size / growth, monotherapy [2]: significant decrease of tumor size; also recorded: more effective than 5-FU treatment | 5-FU-induced leukopenia / myelosuppression in tumor-bearing mice ([2]; chimera daily for 5 days, 5-FU at days 2, 3, 4): ameliorates 5-FU induced myelosuppression; also recorded: largely prevented leukopenia
